Assay results reported in patent publication US20090226474A1, “Antibodies as T cell receptor mimics, methods of production and uses thereof” (priority 2004, published 2009).

Key:
[1] = target: GVL peptide-HLA-A2 complex (human); experiment: flow cytometry, T2 cells pulsed with 50 to 0.1 µg/ml GVL peptide
[2] = target: GVL peptide-HLA-A2 complex (human); experiment: cell-based or functional assay

MFI [1]: 250 to 350 MFI
CDC of T2 cells pulsed with 50 to 0.1 µg/ml GVL peptide, antibody 10 µg/ml [2]: 53 to 70%
Substance: BB7.2 mAb (antibody)
